We go through three substances from publication PMC4825019.

Like-named read-outs stand apart in the source and are kept apart here.

Assay [1] deals with synaptophysin (endogenous) (mouse (endogenous in C57BL/6 brain)) (UniProt Q62277). Briefly: co-IP; reverse co-IP from dephosphorylated wild-type mouse brain lysate (neither heated nor dialyzed) with antibodies for synaptophysin, β-synuclein or apoA1; blot probed with Dako Tau antibody, the three Tau isoforms quantified with ImageJ.
In assay [2] the target is β-synuclein (endogenous) (mouse (endogenous in C57BL/6 brain)) (UniProt Q91ZZ3). Described as above.
The target is the same in assay [3]. The assay is described as above. This is another data set of the same source.
The target of assay [4] is recombinant 1N Tau (Mtau210, 1N4R, with N-terminal GST tag) (murine). The assay is described as follows: ELISA; plates coated overnight at 4 °C with recombinant 0N, 1N or 2N Tau at 10 μg/ml in PBS, blocked with 3% BSA; recombinant β-synuclein and synaptophysin at 10 μg/ml in PBS for 1 h at room temperature, detected with anti-V5; recombinant apoA1 detected with an anti-apoA1 antibody; absorbance at 450 nm after subtraction of BSA-coated wells.

Assay [5] deals with recombinant 2N Tau (Mtau2310, 2N4R, with N-terminal GST tag) (murine). The description is as above.

UniProt Q62277, sequence (Q62277 whole entry, canonical isoform): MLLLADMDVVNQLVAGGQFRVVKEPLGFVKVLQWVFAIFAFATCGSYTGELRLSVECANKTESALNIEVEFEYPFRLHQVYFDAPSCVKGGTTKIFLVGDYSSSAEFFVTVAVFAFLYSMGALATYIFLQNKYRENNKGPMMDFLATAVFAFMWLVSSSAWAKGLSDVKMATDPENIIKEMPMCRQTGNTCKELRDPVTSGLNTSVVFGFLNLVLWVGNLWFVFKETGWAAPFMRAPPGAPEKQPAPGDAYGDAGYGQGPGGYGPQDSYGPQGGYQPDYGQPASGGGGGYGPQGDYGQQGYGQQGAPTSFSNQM

On to 1N Tau (endogenous) (natural protein), for which the ratio to 0N Tau (Western blot of the reverse IP) was found to be 0.97 in assay [1], 0.41 in assay [2] and 0.897 in assay [3].
For 2N Tau (endogenous) (natural protein), in that order: 0.93, 0.37 and 0.5.
For “recombinant β-synuclein (C-terminal His6 and V5 tag) (from UniProt Q91ZZ3 1-133) (natural protein)”, the ratio to 0N Tau (ELISA absorbance) in assay [4] was 0.63; in assay [5], 0.26.
